US10245299B2, “Autoassembling peptides for the treatment of pulmonary bulla” (3-D MATRIX, LTD., priority 2014, dated 2019)
Where no end group is shown, it is not given here.

Columns and labels:
[1] = pH and appearance of 2.5% peptide solutions after adding 0.1 N NaOH; assay type: physicochemical
Method: To adjust the pH level of the peptide solutions by way of example, 0.1 N NaOH was added to 2 mL of 2.5% peptide solutions and their pH and appearance were measured.

[2] = Rheological properties at adjusted salt ionic strength; assay type: physicochemical; conditions: for ionic strength adjustment up to which the rheological property of the solution increases (decreases above): 1% solutions, storage modulus at 1 rad/sec
Method: Based on the visual observation of the effect of salt ionic strength on the properties of the peptide solutions, the effect on the rheological properties of the peptide solutions after adjusting their ionic strength level with NaCl to 0.7 M (PuraMatrix®), 0.2 M (KLD12) or 0.02 M (IEIK13), which is closely below the critical ionic strength at which each peptide becomes cloudy, was evaluated. If the ionic strength levels with NaCl of peptide solutions are higher than 0.9 M (PuraMatrix®), 0.3 M (KLD12) or 0.03 M (IEIK13), the peptide solution begin phase separation becoming cloudy and weak. The rheological property of PuraMatrix®, KLD12 and IEIK13 solutions was higher after adjusting their ionic strength level with NaCl to 0.7 M (PuraMatrix®), 0.2 M (KLD12) or 0.02 M (IEIK13), The results are shown in FIG. 10 for KLD12 1%, FIG. 11 for IEIK13 1%, and FIG. 12 for PuraMatrix® 1%, respectively. Frequency sweep tests were performed from 1 rad/s to 10 rad/s at 1 Pa.
Based on the results of the effect on the rheological properties of the peptide solutions after adjusting their ionic strength level with NaCl to 0.7 M (PuraMatrix®), 0.2 M (KLD12) or 0.02 M (IEIK13), the effect on the rheological properties of the peptide solution at various salt ionic strengths was evaluated. […] The results are shown in FIG. 13 for PuraMatrix® 1% solution and in FIG. 14 for IEIK13 1% solution. Frequency sweep tests were performed from 1 rad/sec to 10 rad/sec at 1 Pa and the storage modulus at 1 rad/sec was selected for data.
Based on the results of the effect on the rheological properties of the peptide solutions after adjusting their ionic strength levels, the effect on the rheological properties of the peptide hydrogels after DMEM treatment for 10 min was evaluated. […] The results are shown in FIG. 15 for PuraMatrix® 1% hydrogels and in FIG. 16 for IEIK13 1% hydrogels, both after DMEM treatment for 10 min. Frequency sweep tests were performed from 1 rad/sec to 10 rad/sec at 1 Pa and the storage modulus at 1 rad/sec was selected for data.
Based on the results of the effect on the rheological properties of the peptide solutions and hydrogels after adjusting their ionic strength levels with NaCl, the effect of various salts (KCl, MgCl2, and CaCl2) was also evaluated. The rheological property of PuraMatrix® solutions increases with ionic strength adjustment at 0.15 M of all the salts. Increases of the rheological property of PuraMatrix® solutions with various salts were not predominantly different. However, increases of the rheological property of PuraMatrix® solutions may vary depending on the salting out constant, K of each salt. Constant K is a constant in Cohen's equation: log S=B−KI, where S is solubility, B is idealized solubility, K is salting out constant, and I is ionic strength. With a higher value of constant K and ionic strength of salts, solubility of the peptide may decrease resulting in strong peptide self-assembly with increased hydrophobic effect and higher rheological properties of the peptide solution. The constant K of NaCl may be higher than the other salts. […] The results are shown in FIG. 17 for PuraMatrix® 1% solution before DMEM treatment, and in FIG. 18 for PuraMatrix® 1% hydrogels after DMEM treatment for 10 min.
In accordance with one or more embodiments, IEIK13, KLD12, and PuraMatrix® may be dissolved both in salt buffer such as NaCl and at an elevated pH level adjusted with alkali salt buffer such as NaOH to keep their salt ionic strength under their critical salt points as well as their pH level to about 2.5˜4.0, so that they may have stiffer properties. With respect to PuraMatrix®, […] and IEIK13, the peptide solutions are still clear with 0.9% NaCl (ionic strength: 0.15 M) at pH 3.4 adjusted with NaOH. […] The effect of salt ionic strength and pH adjustment on the rheological properties of PuraMatrix® 2.5% solution are shown in FIG. 20. […]

[3] = 0.1N NaOH 150 μL/mL, conc. 2.17%, pH 2.7
[4] = 0.1N NaOH 350 μL/mL, conc. 1.85%, pH 4.5
[5] = 0.1N NaOH added in 2.5% solution 0 μL/mL, conc. 2.5%
[6] = 0.1N NaOH added in 2.5% solution 50 μL/mL, conc. 2.38%
[7] = 0.1N NaOH added in 2.5% solution 100 μL/mL, conc. 2.27%
[8] = 0.1N NaOH added in 2.5% solution 150 μL/mL, conc. 2.17%
[9] = 0.1N NaOH added in 2.5% solution 200 μL/mL, conc. 2.08%
[10] = 0.1N NaOH added in 2.5% solution 250 μL/mL, conc. 2.0%
[11] = 0.1N NaOH added in 2.5% solution 275 μL/mL, conc. 1.96%
[12] = 0.1N NaOH added in 2.5% solution 300 μL/mL, conc. 1.92%
[13] = 0.1N NaOH added in 2.5% solution 350 μL/mL, conc. 1.85%
[14] = 1% hydrogels after DMEM treatment for 10 min

Substance | Appearance [1, 3] | Appearance [1, 4] | Peptide solution pH [1, 5] | Peptide solution pH [1, 6] | Peptide solution pH [1, 7] | Peptide solution pH [1, 8] | Peptide solution pH [1, 9] | Peptide solution pH [1, 10] | Peptide solution pH [1, 11] | Peptide solution pH [1, 12] | Peptide solution pH [1, 13] | Appearance ([1]; pH 7.0) | ionic strength adjustment up to which the rheological property of the solution increases (decreases above) [2] | ionic strength level with NaCl above which the solution begins phase separation becoming cloudy and weak [2] | further results
Arg-Ala-Asp-Ala-Arg-Ala-Asp-Ala-Arg-Ala-Asp-Ala-Arg-Ala-Asp-Ala [PuraMatrix®] | Clear, thick, | Cloudy, phase- | 2.2 | 2.3 | 2.4 | 2.7 | 2.9 | 3.2 | 3.4 | 3.6 | 4.5 | Cloudy, phase- | up to 0.7 M | higher than 0.9 M | Appearance ([1]; 0.1N NaOH 0 μL/mL, conc. 2.5%, pH 2.2): Clear, thick gel; Appearance ([1]; 0.1N NaOH 50 μL/mL, conc. 2.38%, pH 2.3): Clear, thick gel; Appearance ([1]; 0.1N NaOH 100 μL/mL, conc. 2.27%, pH 2.4): Clear, thick gel; Appearance ([1]; 0.1N NaOH 200 μL/mL, conc. 2.08%, pH 2.9): Clear, thick,; Appearance ([1]; 0.1N NaOH 250 μL/mL, conc. 2.0%, pH 3.2): Clear, thick,; Appearance ([1]; 0.1N NaOH 275 μL/mL, conc. 1.96%, pH 3.4): Clear, thick,; Appearance ([1]; 0.1N NaOH 300 μL/mL, conc. 1.92%, pH 3.6): Slightly cloudy,; ionic strength adjustment up to which the rheological property of hydrogels increased (decreases above) [2, 14]: up to 0.7 M; rheological property of hydrogels with ionic strength adjustment with various salts ([2]; 1% hydrogels after DMEM treatment for 10 min, 0.15 M ionic strength): comparable to increases of the rheological property of PuraMatrix® solutions with various salts; rheological property of solutions with NaCl compared with other salts ([2]; 1% solution, 0.15 M ionic strength): slightly higher than those with KCl and CaCl2; rheological property of solutions with ionic strength adjustment ([2]; 1% solution, 0.15 M ionic strength of all the salts (NaCl, KCl, MgCl2, CaCl2)): increases; rheological property ([2]; 2.5% solution with 0.9% NaCl (ionic strength: 0.15 M) at pH 3.4): stiffer than those of PuraMatrix control and PuraMatrix with only NaCl 0.9%
Ile-Glu-Ile-Lys-Ile-Glu-Ile-Lys-Ile-Glu-Ile-Lys-Ile [IEIK13] | Clear, thick gel, | Cloudy, brittle gel | 1.8 | 2.1 | 2.2 | 2.7 | 3.0 | 3.3 | 3.7 | 4.0 | 4.5 | Cloudy, phase- | up to 0.03 M | > 0.03 M | Appearance ([1]; 0.1N NaOH 0 μL/mL, conc. 2.5%, pH 1.8): Clear, thick gel; Appearance ([1]; 0.1N NaOH 50 μL/mL, conc. 2.38%, pH 2.1): Clear, thick gel; Appearance ([1]; 0.1N NaOH 100 μL/mL, conc. 2.27%, pH 2.2): Clear, thick gel; Appearance ([1]; 0.1N NaOH 200 μL/mL, conc. 2.08%, pH 3.0): Clear, thick gel,; Appearance ([1]; 0.1N NaOH 250 μL/mL, conc. 2.0%, pH 3.3): Clear, thick gel,; Appearance ([1]; 0.1N NaOH 275 μL/mL, conc. 1.96%, pH 3.7): Clear, thick,; Appearance ([1]; 0.1N NaOH 300 μL/mL, conc. 1.92%, pH 4.0): Slightly cloudy,; Appearance ([1]; 0.1N NaOH 400 μL/mL, conc. 1.79%, pH 5.4): Cloudy, phase-; Peptide solution pH ([1]; 0.1N NaOH added in 2.5% solution 400 μL/mL, conc. 1.79%): 5.4; rheological property of hydrogels with ionic strength adjustment [2, 14]: did not significantly change with ionic strength adjustment up to 0.025 M, while decreases above 0.03 M
KLDLKLDLKLDL [KLD12] |  |  | 2.1 | 2.4 | 2.6 | 2.9 | 3.3 | 4.0 |  | 4.7 | 5.2 | Cloudy, phase- |  | > 0.3 M | Appearance ([1]; 0.1N NaOH 0 μL/mL, conc. 2.5%, pH 2.1): Clear, thick gel; Appearance ([1]; 0.1N NaOH 50 μL/mL, conc. 2.38%, pH 2.4): Clear, thick gel; Appearance ([1]; 0.1N NaOH 100 μL/mL, conc. 2.27%, pH 2.6): Clear, thick gel; Appearance ([1]; 0.1N NaOH 250 μL/mL, conc. 2.0%, pH 4.0): Slightly cloudy,; Appearance ([1]; 0.1N NaOH 300 μL/mL, conc. 1.92%, pH 4.7): Cloudy, brittle gel; Appearance ([1]; 0.1N NaOH 350 μL/mL, conc. 1.85%, pH 5.2): Cloudy, phase-; Peptide solution pH ([1]; 0.1N NaOH added in 2.5% solution 225 μL/mL, conc. 2.04%): 3.6
